Measurements as given in patent US6783760.

Molecular target: anti-VCAM-1.tTF coaguligand (anti-VCAM-1 antibody IgG covalently linked via SMPT to truncated tissue factor with an added N-terminal cysteine) (human) (UniProt P13726)
Assay: 125I-labeled 10H10 bound to anti-VCAM-1.tTF-treated IL-1α-activated bEnd.3 cells, gamma counting

UniProt P13726, sequence (P13726 other isoform, or with tags, fused parts or gaps): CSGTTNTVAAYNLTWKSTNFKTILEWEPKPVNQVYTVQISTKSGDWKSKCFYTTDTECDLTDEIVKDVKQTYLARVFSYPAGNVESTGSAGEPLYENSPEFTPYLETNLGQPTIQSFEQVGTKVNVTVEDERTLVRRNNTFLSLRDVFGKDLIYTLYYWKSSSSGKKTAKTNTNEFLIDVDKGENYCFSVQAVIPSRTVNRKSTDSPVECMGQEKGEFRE

An anti-TF antibody bound to coaguligand-treated cells at saturation of 8.7 fmol and a molecules of anti-TF antibody bound per cell at saturation (molecules of anti-TF antibody per cell) of 540000 were found for “10H10, mouse monoclonal antibody against human tissue factor” in this work.
